Holding throughout (settings): Homo sapiens
Substrate in series [1]: CC(=O)N1Cc2ccccc2C[C@H]1C(=O)NCC(=O)N1C2CCCCC2C[C@H]1C(=O)N[C@@H](CCCNC(=N)N)C(=O)Nc1ccc2c(CC(N)=O)cc(=O)oc2c1
The series can be described thus: Substrate activity at Granzyme K (unknown origin) expressed in Pichia pastoris incubated for 30 mins by fluorescence based assay.

Substrate in series [2]: CC(=O)N1Cc2ccccc2C[C@H]1C(=O)NCC(=O)N1C2CCCCC2C[C@H]1C(=O)N[C@@H](CCCNC(=N)N)C(=O)Nc1ccc2c(CC(N)=O)cc(=O)oc2c1
The series can be described thus: (§1) Substrate activity at Granzyme A (unknown origin) expressed in Pichia pastoris incubated for 30 mins by fluorescence based assay.

Substrate in series [3]: CC[C@H](C)[C@H](NC(C)=O)C(=O)NCC(=O)N1CCC[C@H]1C(=O)N[C@@H](CCCNC(=N)N)C(=O)Nc1ccc2c(CC(N)=O)cc(=O)oc2c1
The series is described as §1.

The record followed here is ChEMBL document CHEMBL4342470, “Detection of Active Granzyme A in NK92 Cells with Fluorescent Activity-Based Probe” (J Med Chem, 2020).

B1: Granzyme K (Homo sapiens), P49863 (protein)
chain: MTKFSSFSLFFLIVGAYMTHVCFNMEIIGGKEVSPHSRPFMASIQYGGHHVCGGVLIDPQWVLTAAHCQYRFTKGQSPTVVLGAHSLSKNEASKQTLEIKKFIPFSRVTSDPQSNDIMLVKLQTAAKLNKHVKMLHIRSKTSLRSGTKCKVTGWGATDPDSLRPSDTLREVTVTVLSRKLCNSQSYYNGDPFITKDMVCAGDAKGQKDSCKGDSGGPLICKGVFHAIVSGGHECGVATKPGIYTLLTKKYQTWIKSNLVPPHTN
Usually Km stands for the concentration of substrate that gives half-maximal velocity. In general, kcat refers to the number of substrate molecules converted per active site and unit of time at saturation. By kcat/Km is commonly meant the second-order rate constant that governs catalysis at low substrate concentration. Regarding B1, in series [1], the Km result is recorded as “Not Active”, the kcat entry is “Not Active” and the kcat/Km result was “Not Active”.

B2: Granzyme A (Homo sapiens), P12544 (protein)
chain: MRNSYRFLASSLSVVVSLLLIPEDVCEKIIGGNEVTPHSRPYMVLLSLDRKTICAGALIAKDWVLTAAHCNLNKRSQVILGAHSITREEPTKQIMLVKKEFPYPCYDPATREGDLKLLQLMEKAKINKYVTILHLPKKGDDVKPGTMCQVAGWGRTHNSASWSDTLREVNITIIDRKVCNDRNHYNFNPVIGMNMVCAGSLRGGRDSCNGDSGSPLLCEGVFRGVTSFGLENKCGDPRGPGVYILLSKKHLNWIIMTIKGAV
In the case of B2, in series [2], the Km worked out at 87.4 µM, the kcat amounted to 0.27 s⁻¹ and the kcat/Km is 3100 M⁻¹ s⁻¹. Moreover, in series [3], the Michaelis constant (Km) was found to be 450 µM, the kcat stood at 0.035 s⁻¹ and the specificity constant (kcat/Km) stood at 78 M⁻¹ s⁻¹.
